Results: patent US20190092856A1 (published 2019)

T1: human OSM (recombinant, mammalian-cell derived, OSMN1-1) (human, UniProt P13725 26-221)
T1 construct: Precursor and mature (amino acids 1-184) forms were both expressed in HEK 293; also called hOSM; human oncostatin M
T1 sequence: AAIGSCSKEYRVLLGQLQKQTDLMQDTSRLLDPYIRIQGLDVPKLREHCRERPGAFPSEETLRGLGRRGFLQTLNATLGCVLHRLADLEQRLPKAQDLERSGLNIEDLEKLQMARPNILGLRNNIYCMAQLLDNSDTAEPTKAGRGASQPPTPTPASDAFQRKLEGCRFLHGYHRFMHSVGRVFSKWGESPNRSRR

T2: Cynomolgus monkey (Macaca fascicularis) OSM, recombinant, in-house (cynomolgus monkey, UniProt P13725 26-221 (human entry), limits assumed)
T2 construct: His/AviTag construct expressed in HEK 293; also called Cyno OSM; cyno OSM
T2 chain: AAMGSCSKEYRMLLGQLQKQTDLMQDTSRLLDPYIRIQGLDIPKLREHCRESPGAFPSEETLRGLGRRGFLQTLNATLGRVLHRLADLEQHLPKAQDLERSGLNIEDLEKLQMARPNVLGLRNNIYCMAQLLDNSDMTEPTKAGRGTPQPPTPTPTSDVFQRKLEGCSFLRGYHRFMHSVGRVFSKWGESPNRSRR

T3: native human Oncostatin M (macrophage-derived) (human, UniProt P13725 26-221, limits assumed)
T3 sequence: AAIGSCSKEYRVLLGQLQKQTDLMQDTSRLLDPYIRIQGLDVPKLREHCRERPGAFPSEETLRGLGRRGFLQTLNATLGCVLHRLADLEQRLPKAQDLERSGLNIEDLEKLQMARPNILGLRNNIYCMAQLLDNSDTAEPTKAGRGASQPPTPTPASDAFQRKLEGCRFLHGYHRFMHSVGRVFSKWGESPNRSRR

T4: CHO cell-derived recombinant cynomolgous monkey oncostatin M (in-house) (cynomolgus monkey, UniProt P13725 26-221 (human entry), limits assumed)
T4 chain: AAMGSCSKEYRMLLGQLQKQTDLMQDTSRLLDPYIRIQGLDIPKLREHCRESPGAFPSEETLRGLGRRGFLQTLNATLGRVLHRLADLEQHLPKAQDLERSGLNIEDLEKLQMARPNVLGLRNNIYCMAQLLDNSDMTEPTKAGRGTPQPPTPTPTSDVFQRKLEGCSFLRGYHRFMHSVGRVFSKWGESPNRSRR

T5: CHO cell-derived recombinant human oncostatin M (in-house) (human, UniProt P13725 26-221, limits assumed)
T5 sequence: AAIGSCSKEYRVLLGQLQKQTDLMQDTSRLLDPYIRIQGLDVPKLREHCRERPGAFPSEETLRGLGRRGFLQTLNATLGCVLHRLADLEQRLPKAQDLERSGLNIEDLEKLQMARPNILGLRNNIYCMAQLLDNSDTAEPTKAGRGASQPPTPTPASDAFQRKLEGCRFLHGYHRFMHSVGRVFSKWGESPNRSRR


Key:
[1] = biological target: T1, human OSM (recombinant, mammalian-cell …); assay: SPR (Biacore), mAb captured by anti-Fc, OSM as analyte
Protocol: (§1) The binding affinities were measured using Surface Plasmon Resonance (SPR) with a Biacore 3000 optical biosensor (Biacore) using human or Cyno OSM constructs as described. […] Approximately 19,000 RU (response units) of anti-OSM antibody were immobilized in each of four flow cells. The kinetic experiments were performed at 25° C. in running buffer (DPBS+0.005% P20+3 mM EDTA). Serial dilutions Human and Cyno OSM ECD from 100 nM to 0.412 nM were prepared in running buffer. About 200 RU of mAb were captured on flow cells 2 to 4 of the sensor chip. Flow cell 1 was used as reference surface. Capture of mAb was followed by a three-minute injection (association phase) of antigen at 50 μl/min, followed by 10 minutes of buffer flow (dissociation phase). The chip surface was regenerated by two pulses of 18-second injections of 100 mM H3PO4 (Sigma, Cat. No. 7961) at 50 μl/min.
(§2) The collected data was processed using the BIAevaluation software (Biacore, version 3.2). First, double reference subtraction of the data was performed by subtracting the curves generated by buffer injection from the reference-subtracted curves for analyte injections. Kinetic analysis of the data was performed using 1:1 binding model with global fit. The result for each mAb was reported in the format of Ka (On-rate), Kd (Off-rate) and KD (affinity constant).

[2] = biological target: T2, Cynomolgus monkey (Macaca fascicularis) …; assay: as above
Protocol: as §1, §2

[3] = biological target: T2, Cynomolgus monkey (Macaca fascicularis) …; assay: SPR (Biacore), KD for cyno OSM over KD for human OSM
Protocol: as §1, §2

[4] = biological target: T1, human OSM (recombinant, mammalian-cell …); assay: cell-based or functional assay
[5] = biological target: T1, human OSM (recombinant, mammalian-cell …); assay: SPR competition, second chip, hOSM captured on immobilized M64 (competitor), sample at 300 nM
Protocol: (§3) The biosensor surface was prepared by coupling each test mAb to the carboxymethylated dextran surface of a CM-5 chip (Biacore, Cat# BR-1000-14) following the manufacturer's instructions. Approximately 4,000-15,000 RU (response units) of each test mAb were immobilized in one the instrument's four flow cells. Competition experiments were performed at 25 ° C. in running buffer (DPBS+0.005% P20+3 mM EDTA). Human OSM (in-house, OSMN1-1) was diluted to 30 nM in running buffer and injected at 3 μl/min for 3 minutes over each of the flow cells with immobilized mAb. […] The chip surface was regenerated by two 12-second pulses of 100 mM H3PO4 (Sigma, Cat# 7961) at 50 μl/min. The collected data were processed using BIAevaluation software version 3.2 (Biacore). First, the sensorgrams were aligned upon injection of human OSM. […] Flow-cell (Fc1, etc.) immobilized mAbs appear along the horizontal sample rows of Table 10.

[6] = biological target: T1, human OSM (recombinant, mammalian-cell …); assay: SPR competition, hOSM captured on immobilized M69 (competitor), sample at 300 nM
Protocol: as §3

[7] = biological target: T1, human OSM (recombinant, mammalian-cell …); assay: SPR competition, hOSM captured on immobilized M54 (competitor), sample at 300 nM
Protocol: as §3

[8] = biological target: T1, human OSM (recombinant, mammalian-cell …); assay: SPR competition, hOSM captured on immobilized M71 (competitor), sample at 300 nM
Protocol: as §3

[9] = biological target: T1, human OSM (recombinant, mammalian-cell …); assay: SPR competition, second chip, hOSM captured on immobilized M55 (competitor), sample at 300 nM
Protocol: as §3

[10] = biological target: T1, human OSM (recombinant, mammalian-cell …); assay: SPR competition, second chip, hOSM captured on immobilized M2 (competitor), sample at 300 nM
Protocol: as §3

[11] = biological target: T1, human OSM (recombinant, mammalian-cell …); assay: SPR competition, hOSM captured on immobilized M2 (competitor), sample at 300 nM
Protocol: as §3

[12] = biological target: T3, native human Oncostatin M …; assay: cell-based or functional assay
[13] = biological target: T1, human OSM (recombinant, mammalian-cell …); assay: cell-based or functional assay; remark: listed apart in the source
[14] = biological target: T4, CHO cell-derived recombinant …; assay: cell-based or functional assay
[15] = biological target: T5, CHO cell-derived recombinant human …; assay: cell-based or functional assay

Binder | Kd [1] | koff [1] | kon [1] | Kd [2] | koff [2] | kon [2] | KD ratio Cyno/Human [3] | pSTAT3 inhibition EC50 (A375 cells, 5 ng/ml hOSM) [4] | Binding Level (RU) [5] | Binding Level (RU) [6] | Binding Level (RU) [7] | Binding Level (RU) [8] | Binding Level (RU) [9] | Binding Level (RU) [10] | Binding Level (RU) [11] | EC50, increase of proteoglycan synthesis in macrophage-chondrocyte co-culture [12] | IC50, neutralization of OSM-induced STAT3 phosphorylation in NHLF cells (2 ng/ml OSM) [13] | IC50, neutralization of OSM suppression of A375-S2 proliferation (BrdU) [14] | IC50, neutralization of OSM suppression of A375-S2 proliferation (BrdU) [15]
M10 (antibody, V domains shown, Tested as full-length human IgG1; also called OSMM10; H2/L2) VH: QVQLVQSGAEVKKPGSSVKVSCKASGGTFSSYAISWVRQAPGQGLEWMGGIIPIFGNANYAQKFQGRVTITADESTSTAYMELSSLRSEDTAVYYCARYGAKGLLDYWGQGTLVTVSS VL: not shown | 1.05 nM | 6.3e-05 s⁻¹ | 60200 M⁻¹ s⁻¹ | 18.9 nM | 0.00101 s⁻¹ | 53300 M⁻¹ s⁻¹ | 18.1 |  |  |  |  |  |  |  |  |  |  |  | 
M5 (antibody, V domains shown, Tested as full-length human IgG1; also called OSMM5; H135/L111) VH: EVQLVQSGAEVKKPGESLKISCKGSGYSFTSYWIGWVRQMPGKGLEWMGIIYPGDSDTRYSPSFQGQVTISADKSISTAYLQWSSLKASDTAMYYCARGFGASYLDYWGQGTLVTVSS VL: not shown | 11.8 nM | 0.000779 s⁻¹ | 65900 M⁻¹ s⁻¹ | 12.1 nM | 0.00111 s⁻¹ | 92200 M⁻¹ s⁻¹ | 1 |  |  |  |  |  |  |  |  |  |  |  | 
M9 (antibody, V domains shown, Tested as full-length human IgG1; also called OSMM9) VH: EVQLVQSGAEVKKPGESLKISCKGSGYSFTSYWISWVRQMPGKGLEWMGIIYPGDSYTRYSPSFQGQVTISADKSISTAYLQWSSLKASDTAMYYCARVPVSPAYLDYWGQGTLVTVSS VL: not shown | 1.22 nM | 8.1e-05 s⁻¹ | 66300 M⁻¹ s⁻¹ | 0.73 nM | 5.4e-05 s⁻¹ | 73100 M⁻¹ s⁻¹ | 0.6 | 1220 ng/ml |  |  |  |  |  |  |  |  |  |  | 
M6 (antibody, V domains shown, Tested as full-length human IgG1; also called OSMM6; H14/L12) VH: EVQLVQSGAEVKKPGESLKISCKGSGYSFTSYWISWVRQMPGKGLEWMGIIYPGDSYTRYSPSFQGQVTISADKSISTAYLQWSSLKASDTAMYYCARGSVFEAYFDYWGQGTLVTVSS VL: not shown | 1.03 nM | 0.000197 s⁻¹ | 192000 M⁻¹ s⁻¹ | 1.48 nM | 0.000299 s⁻¹ | 203000 M⁻¹ s⁻¹ | 1.4 | 650 ng/ml | 33 RU | 16 RU | 11 RU | 19 RU | 36 RU | 926 RU | 985 RU |  |  |  | 

Other lines, results leading:

Kd [1] | koff [1] | kon [1] | Kd [2] | koff [2] | kon [2] | KD ratio Cyno/Human [3] | pSTAT3 inhibition EC50 (A375 cells, 5 ng/ml hOSM) [4] | Binding Level (RU) [5] | Binding Level (RU) [6] | Binding Level (RU) [7] | Binding Level (RU) [8] | Binding Level (RU) [9] | Binding Level (RU) [10] | Binding Level (RU) [11] | EC50, increase of proteoglycan synthesis in macrophage-chondrocyte co-culture [12] | IC50, neutralization of OSM-induced STAT3 phosphorylation in NHLF cells (2 ng/ml OSM) [13] | IC50, neutralization of OSM suppression of A375-S2 proliferation (BrdU) [14] | IC50, neutralization of OSM suppression of A375-S2 proliferation (BrdU) [15] | Binder
 |  |  |  |  |  |  | 160 ng/ml | 17 RU | 23 RU | -1 RU | 32 RU | 22 RU | 1130 RU | 1190 RU | 0.03 µg/mL | 0.0089 µg/mL | 0.0397 µg/mL | 0.0219 µg/mL | M71 (antibody, V domains shown, Human IgG1; also called H17/L180) VH: EVQLVQSGAEVKKPGESLKISCKGSGYSFTSYWISWVRQMPGKGLEWMGIIYPGDSYTRYSPSFQGQVTISADKSISTAYLQWSSLKASDTAMYYCARVPVSPAYLDYWGQGTLVTVSS VL: not shown
 |  |  |  |  |  |  |  | 18 RU | 20 RU | 17 RU | 29 RU | 25 RU | 251 RU | 319 RU |  |  |  |  | Human gp130-Fc (R&D Systems, Cat. No. 671-GP) (Fc fusion, UniProt P40189 23-619, looked up, Bought fusion protein; also called gp130-Fc chimera; Fc part of the bought chimera not given, not described) ELLDPCGYISPESPVVQLHSNFTAVCVLKEKCMDYFHVNANYIVWKTNHFTIPKEQYTIINRTASSVTFTDIASLNIQLTCNILTFGQLEQNVYGITIISGLPPEKPKNLSCIVNEGKKMRCEWDGGRETHLETNFTLKSEWATHKFADCKAKRDTPTSCTVDYSTVYFVNIEVWVEAENALGKVTSDHINFDPVYKVKPNPPHNLSVINSEELSSILKLTWTNPSIKSVIILKYNIQYRTKDASTWSQIPPEDTASTRSSFTVQDLKPFTEYVFRIRCMKEDGKGYWSDWSEEASGITYEDRPSKAPSFWYKIDPSHTQGYRTVQLVWKTLPPFEANGKILDYEVTLTRWKSHLQNYTVNATKLTVNLTNDRYLATLTVRNLVGKSDAAVLTIPACDFQATHPVMDLKAFPKDNMLWVEWTTPRESVKKYILEWCVLSDKAPCITDWQQEDGTVHRTYLRGNLAESKCYLITVTPVYADGPGSPESIKAYLKQAPPSKGPTVRTKKVGKNEAVLEWDQLPVDVQNGFIRNYTIFYRTIIGNETAVNVDSSHTEYTLSSLTSDTLYMVRMAAYTDEGGKDGPEFTFTTPKFAQGEIE
